Target: CD20 on CD20+ human Burkitt's lymphoma cell lines (Ramos, Raji) (human) (UniProt P11836)
Assay: cell-based or functional assay

UniProt P11836, sequence (P11836 whole entry): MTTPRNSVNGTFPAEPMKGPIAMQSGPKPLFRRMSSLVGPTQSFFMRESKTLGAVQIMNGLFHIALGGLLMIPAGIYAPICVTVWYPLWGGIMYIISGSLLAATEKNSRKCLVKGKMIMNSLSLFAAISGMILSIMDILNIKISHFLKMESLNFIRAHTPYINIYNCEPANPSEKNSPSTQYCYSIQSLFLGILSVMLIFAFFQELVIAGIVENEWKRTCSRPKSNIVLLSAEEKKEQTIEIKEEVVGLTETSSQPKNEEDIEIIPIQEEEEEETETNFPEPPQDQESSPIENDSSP

% of Raji alive, AB-101 + RTX, 24 h, batch 19AB101PN001: 13.8% | % of Raji alive, AB-101 + RTX, 24 h, batch 19AB101PN004: 21.1% | % of Raji alive, AB-101 + RTX, 24 h, batch 19AB101PN005: 34.1% | % of Raji alive, AB-101 + RTX, 24 h, batch 20AB101PG001: 25.8% | % of Raji alive, AB-101 + RTX, 24 h, batch 20AB101PG002: 14.3% | % of Raji alive, AB-101 + RTX, 24 h, batch 20AB101PN001: 16.8% | % of Raji alive, AB-101 + RTX, 24 h, batch 20AB101PN002: 26.6% | % of Raji alive, AB-101 + RTX, 24 h, batch 20AB101PN003: 28.4% | % of Raji alive, AB-101 + RTX, 24 h, batch 20AB101PN004: 34.3% | % of Raji alive, AB-101 + RTX, 48 h, batch 19AB101PN001: 6.6% | % of Raji alive, AB-101 + RTX, 48 h, batch 19AB101PN004: 8.9% | % of Raji alive, AB-101 + RTX, 48 h, batch 19AB101PN005: 18.6% | % of Raji alive, AB-101 + RTX, 48 h, batch 20AB101PG001: 11.7% | % of Raji alive, AB-101 + RTX, 48 h, batch 20AB101PG002: 5.5% | % of Raji alive, AB-101 + RTX, 48 h, batch 20AB101PN001: 9.2% | % of Raji alive, AB-101 + RTX, 48 h, batch 20AB101PN002: 12.5% | % of Raji alive, AB-101 + RTX, 48 h, batch 20AB101PN003: 13.3% | % of Raji alive, AB-101 + RTX, 48 h, batch 20AB101PN004: 18.6% | % of Raji alive, AB-101 + RTX, 72 h, batch 19AB101PN001: 4.5% | % of Raji alive, AB-101 + RTX, 72 h, batch 19AB101PN004: 9.4% | % of Raji alive, AB-101 + RTX, 72 h, batch 19AB101PN005: 11.5% | % of Raji alive, AB-101 + RTX, 72 h, batch 20AB101PG001: 9.6% | % of Raji alive, AB-101 + RTX, 72 h, batch 20AB101PG002: 3.6% | % of Raji alive, AB-101 + RTX, 72 h, batch 20AB101PN001: 7.5% | % of Raji alive, AB-101 + RTX, 72 h, batch 20AB101PN002: 13.9% | % of Raji alive, AB-101 + RTX, 72 h, batch 20AB101PN003: 12.3% | % of Raji alive, AB-101 + RTX, 72 h, batch 20AB101PN004: 18.3% | % of Ramos alive, AB-101 + RTX, 24 h, AVE of 9 batches (raw data table; differs from 47.6 in Table 26): 47.9% | % of Ramos alive, AB-101 + RTX, 24 h, batch 19AB101PN001: 29.5% | % of Ramos alive, AB-101 + RTX, 24 h, batch 19AB101PN004: 37.1% | % of Ramos alive, AB-101 + RTX, 24 h, batch 19AB101PN005: 59.7% | % of Ramos alive, AB-101 + RTX, 24 h, batch 20AB101PG001: 54.1% | % of Ramos alive, AB-101 + RTX, 24 h, batch 20AB101PG002: 22.1% | % of Ramos alive, AB-101 + RTX, 24 h, batch 20AB101PN001: 46.2% | % of Ramos alive, AB-101 + RTX, 24 h, batch 20AB101PN003: 57.7% | % of Ramos alive, AB-101 + RTX, 24 h, batch 20AB101PN004: 54.8% | % of Ramos alive, AB-101 + RTX, 48 h, batch 19AB101PN001: 12.1% | % of Ramos alive, AB-101 + RTX, 48 h, batch 19AB101PN004: 18.6% | % of Ramos alive, AB-101 + RTX, 48 h, batch 19AB101PN005: 38.1% | % of Ramos alive, AB-101 + RTX, 48 h, batch 20AB101PG001: 37.4% | % of Ramos alive, AB-101 + RTX, 48 h, batch 20AB101PG002: 7.7% | % of Ramos alive, AB-101 + RTX, 48 h, batch 20AB101PN001: 22.8% | % of Ramos alive, AB-101 + RTX, 48 h, batch 20AB101PN002: 53% | % of Ramos alive, AB-101 + RTX, 48 h, batch 20AB101PN003: 34.4% | % of Ramos alive, AB-101 + RTX, 48 h, batch 20AB101PN004: 29.2% | % of Ramos alive, AB-101 + RTX, 72 h, batch 19AB101PN001: 6.6% | % of Ramos alive, AB-101 + RTX, 72 h, batch 19AB101PN004: 11.4% | % of Ramos alive, AB-101 + RTX, 72 h, batch 19AB101PN005: 30.9% | % of Ramos alive, AB-101 + RTX, 72 h, batch 20AB101PG001: 23.5% | % of Ramos alive, AB-101 + RTX, 72 h, batch 20AB101PG002: 4.1% | % of Ramos alive, AB-101 + RTX, 72 h, batch 20AB101PN001: 11% | % of Ramos alive, AB-101 + RTX, 72 h, batch 20AB101PN002: 40.3% | % of Ramos alive, AB-101 + RTX, 72 h, batch 20AB101PN003: 21.8% | % of Ramos alive, AB-101 + RTX, 72 h, batch 20AB101PN004: 21.3% | lysis of target cells (Raji), AB-101 combined with rituximab, end of the 72 hour co-culture, E:T 1:1 (live-cell analysis, Example 9): 90% | lysis of target cells (Ramos), AB-101 combined with rituximab, end of 72 hrs co-culture, E:T 1:1 (live-cell analysis, Example 9): 80%
Substance: Rituximab (Mabthera or Rituxan) (antibody)
Viable Raji cells (%), AB-101 + RTX, 24 hrs, mean of 9 AB-101 batches (long-term ADCC, IncuCyte): 23.9% | Viable Raji cells (%), AB-101 + RTX, 48 hrs, mean of 9 AB-101 batches (long-term ADCC, IncuCyte): 11.7% | Viable Raji cells (%), AB-101 + RTX, 72 hrs, mean of 9 AB-101 batches (long-term ADCC, IncuCyte): 10.1% | Viable Ramos cells (%), AB-101 + RTX, 24 hrs, mean of 9 AB-101 batches (long-term ADCC, IncuCyte): 47.6% | Viable Ramos cells (%), AB-101 + RTX, 48 hrs, mean of 9 AB-101 batches (long-term ADCC, IncuCyte): 28.1% | Viable Ramos cells (%), AB-101 + RTX, 72 hrs, mean of 9 AB-101 batches (long-term ADCC, IncuCyte): 19%

From patent publication US20240000840A1
